Biological target: Rac1 (UniProt P63000)

| Substance | GEF activity (32P-GTP bound to the GTPase, filter assay), with and without ascorbyl stearate | GEF activity (32P-GTP bound to the GTPase, filter assay), with ascorbyl stearate | GEF activity (32P-GTP bound to the GTPase, filter assay), without lipid |
| --- | --- | --- | --- |
| 135 kD Tiam-1 | shows weak GEF activity towards Rac in the absence of AS, but is still greatly stimulated by AS | – | – |
| 85 kD Tiam-1 | – | ascorbyl stearate (AS) stimulated the rate of Tiam-1-mediated nucleotide exchange on Rac 1 | this truncation alone, at various concentrations, exhibited no GEF activity towards Rac 1 |
| 66 kD Tiam-1 | – | Other truncations of Tiam-1, all containing the DH and PH domains (FIG. 3), also exhibited AS stimulated GEF activity on Rac 1 | – |
| 106 kD Tiam-1 | – | Other truncations of Tiam-1, all containing the DH and PH domains (FIG. 3), also exhibited AS stimulated GEF activity on Rac 1 | – |
